Patent US20230355708A1 (priority 2020, published 2023)
Entries after “also recorded” stand apart in the source; their conditions may differ.

B1: CVN: lectin cyanovirin-N, SEQ ID NO:1 (protein)
chain: LGKFSQTCYNSAIQGSVLTSTCERTNGGYNTSSIDLNSVIENVDGSLKWQPSNFIETCRNTQLAGSSELAAECKTRAQQFVSTKINLDDHIANIDGTLKYE
B2: P51G-CVN: mutant CVN wherein Pro 51 is mutated to Gly, SEQ ID NO:3 (protein)
chain: LGKFSQTCYNSAIQGSVLTSTCERTNGGYNTSSIDLNSVIENVDGSLKWQGSNFIETCRNTQLAGSSELAAECKTRAQQFVSTKINLDDHIANIDGTLKYE

What was measured:
[1] = test system: SARS-CoV-2 pseudoviruses
[2] = test system: SARS-CoV-2 pseudoviruses; type: cell-based
[3] = test system: SARS-CoV-1 pseudoviruses; type: cell-based
[4] = test system: HIV-1 pseudovirus
[5] = test system: SARS-CoV-2 pseudoviruses; type: cell-based; remark: listed apart in the source
[6] = test system: Env Neg pseudovirus
[7] = biological target: gp120 (Human immunodeficiency virus type 1 group M subtype B, UniProt P35961); conditions: SPR
[8] = biological target: receptor binding domain (RBD) (Severe acute respiratory syndrome coronavirus 2, UniProt P0DTC2)
[9] = biological target: SARS-CoV-2 spike S1 subunit (Severe acute respiratory syndrome coronavirus 2, UniProt P0DTC2)
[10] = test system: HIV-1 pseudovirus; type: cell-based
[11] = test system: SARS-CoV-1 pseudoviruses; type: cell-based; remark: listed apart in the source
[12] = test system: SARS-CoV-1 pseudoviruses
[13] = biological target: SARS-CoV-2 spike S2 subunit (Severe acute respiratory syndrome coronavirus 2, UniProt P0DTC2)

Molecule	virolysis of SARS-CoV-2 pseudoviruses [1]	inhibition of SARS-CoV-2 pseudovirus infection [2]	irreversible inactivation of SARS-CoV-1 [3]	virolysis of HIV-1 [4]	irreversible inactivation of SARS-CoV-2 [5]	virolysis of Env Neg pseudovirus [6]	binding to gp120 [7]	binding to receptor binding domain (RBD) [8]	binding of S1 to lectin [9]	inhibition of HIV-1 infection [10]	inhibition of SARS-CoV-1 pseudovirus infection [11]	virolysis of SARS-CoV-1 pseudoviruses [12]	stability of lectin-S2 complexes [13]	stoichiometry of binding, S2 versus S1 [13]	binding to S1 subunit [9]	binding to S2 subunit [13]
B1	more potent than CVN-DLI; also recorded: capable of causing cell-free virolysis	inhibited infection at nanomolar potencies	irreversible inactivation	no virolytic effect	irreversible inactivation	no virolytic effect	occurred	no binding	Relatively lower binding	inhibition	inhibition	no virolytic effect	very stable	higher to the S2 subunit		
B2	reduced virolysis	decreased inhibition of infection													reduced affinity as compared to CVN	reduced affinity as compared to CVN
